In PMC6925385, “Dual role of a GTPase conformational switch for membrane fusion by mitofusin ubiquitylation” (Life Science Alliance, 2019):

Target: the molecule itself
Assay: sucrose gradient centrifugation; crude mitochondrial extracts solubilized with 1% digitonin at low protein density (pellet in 500 μl, 10× less dense); 5-25% sucrose gradient, 14-16 h at 4°C; fractions blotted for HA

B1: HA-tagged Fzo1 (yeast mitofusin), wild type (natural protein, yeast (strains isogenic to S288c), UniProt P38297 1-855, looked up)
chain: MSEGKQQFKDSNKPHKDSTDQDDDAATIVPQTLTYSRNEGHFLGSNFHGVTDDRTTLFDGEEGRREDDLLPSLRSSNSKAHLISSQLSQWNYNNNRVLLKRSILKTQAFMDQLQEENNIRPIFIAANDEREKLHVLQLNIKLDGQYNTKEKNGFNIEKKALSKLFHSQIVSVTNHLNALKKRVDDVSSKVFITGDVNTGKSALCNSLLKQRLLPEDQLPCTNVFSEILEARENDGIEEVHAIPLNIAPTLKEAIDMYSIQNPKTYEIHTLKELPDLVPQNGKYALLKIYIKDDKRPASTSLLRNGTVDISLIDSPGLNMDSLQTAEVMSRQEEIDLVIFVVNAENQLTLSAKEFISLASREKKLMFFVVKKFDKIRDKQRCKELILKQIRDLSPETYKRAADFVHFVSKNGDELPHYHNENDNEDHGDRKPDDDPYSSSDPDPDFDSLEDSLRNFVLKKRSLSKLLPAKTYLSKLLSDIIMISKSNMKMYSEEEIKINEQLETLRPEILSARAKCNDLTTSVDQMAEQTITMTYNNTKEALLNALDVPLHEYPKYQGLGQIYDFIFSTEAFIANQIDESIGSSELFAKQKTDLLVKKIYEIGKNELGDDFMCERVFRSELMFRKRKHLIGKRLKVSLSITDLFAPTWKGFLSYLSWQKPVTAPLPDIEGQTNEGQIGLMKYLGLKNYPLTQYWSRPSLLFTSKIPTLTLYFLGSTKVVGNIILNGIKLSSWSSLKKLSVPVIVVGSLLGLTYLIHDLPRALPMNLSIKYKRKLQELDYIHLNAQRTSNEVRDVLRVPTREILRSCEIIMDKKQITKKELENKKESNLLSIKFFQSLYEGTVAQKLMVEEINLDID
modifications: unmodified and ubiquitylated forms both present; K48-linked ubiquitin chains conjugated to lysine 398
notes: Fzo1, the yeast mitofusin (large dynamin-related GTPase of the mitochondrial outer membrane); The immunoprecipitate holds a mix of unmodified and ubiquitylated Fzo1; also called HA-Fzo1; wt Fzo1; source: yeast (isogenic to S288c), genomically HA-tagged or expressed from the centromeric plasmid pRS316 in Δfzo1 cells; in solubilized crude mitochondrial extracts
- stoichiometry N: 2
